Test results taken from PMC8624154.

Target: recombinant extracellular domain of rabies virus glycoprotein (RABVG, CVS strain) with T4 fibritin t (rabies virus (CVS strain))
Assay: SEC; rRABVG on Superdex 200 10/300 GL after HisTrap; single peak

recombinant extracellular domain of rabies virus glycoprotein (RABVG, CVS strain) with T4 fibritin t (domain or fragment)
stoichiometry N: 3
